This is an account of results in patent publication US20250346668A1.

For assay [1], the target named is Human CD3e/g protein (human) (UniProt P07766). Briefly: ELISA, coated hCD3e/g.
In assay [2] the target is Cynomolgus monkey CD3e/g protein (cynomolgus monkey). The experiment in a line: ELISA, coated cyno CD3e/g. (ELISA stands for enzyme-linked immunosorbent assay.)
Assay [3] deals with human CD3e/d protein (Sinobiological, CAT: CT038-H2508H-B) (human) (UniProt P07766). The experiment in a line: ELISA, coated hCD3e/d.

Turning to HIT3a (antibody), in assay [1], the 50% effective concentration (EC50) (commonly the concentration needed to bring the measured effect to its halfway point) worked out at 4.2 nM, the OD450 nm at 0.000853 nM turned out to be 0.07 OD450 nm, the OD450 nm at 0.0043 nM is 0.07 OD450 nm and the OD450 nm at 0.02 nM was determined as 0.08 OD450 nm. Further, in assay [1], the OD450 nm at 0.11 nM worked out at 0.12 OD450 nm, the OD450 nm at 0.53 nM was determined as 0.31 OD450 nm, the OD450 nm at 2.67 nM was 0.59 OD450 nm and the OD450 nm at 13.3 nM was found to be 0.94 OD450 nm. The OD450 nm at 66.7 nM in assay [1] came to 1.22 OD450 nm. In assay [2], this substance came in with an OD450 nm at 0.000853 nM of 0.04 OD450 nm, an OD450 nm at 0.0043 nM of 0.04 OD450 nm, an OD450 nm at 0.02 nM of 0.04 OD450 nm and an OD450 nm at 0.11 nM of 0.04 OD450 nm. In assay [2], this substance registered an OD450 nm at 0.53 nM of 0.04 OD450 nm, an OD450 nm at 2.67 nM of 0.04 OD450 nm, an OD450 nm at 13.3 nM of 0.04 OD450 nm and an OD450 nm at 66.7 nM of 0.04 OD450 nm.
In the case of mouse IgG (antibody), in assay [1], the OD450 nm at 0.000853 nM came to 0.177 OD450 nm, the OD450 nm at 0.0043 nM amounted to 0.101 OD450 nm, the OD450 nm at 0.02 nM stood at 0.08 OD450 nm and the OD450 nm at 0.11 nM came out at 0.09 OD450 nm. In assay [1], this substance yielded an OD450 nm at 0.53 nM of 0.14 OD450 nm, an OD450 nm at 2.67 nM of 0.07 OD450 nm, an OD450 nm at 13.3 nM of 0.1 OD450 nm and an OD450 nm at 66.7 nM of 0.15 OD450 nm. In assay [2], this substance displayed an OD450 nm at 0.000853 nM of 0.0698 OD450 nm, an OD450 nm at 0.0043 nM of 0.101 OD450 nm, an OD450 nm at 0.02 nM of 0.07 OD450 nm and an OD450 nm at 0.11 nM of 0.07 OD450 nm. In addition, in assay [2], the OD450 nm at 0.53 nM came to 0.06 OD450 nm, the OD450 nm at 2.67 nM turned out to be 0.07 OD450 nm, the OD450 nm at 13.3 nM worked out at 0.07 OD450 nm and the OD450 nm at 66.7 nM was 0.08 OD450 nm.
For OKT3 (antibody), in assay [1], the 50% effective concentration (EC50) came to 2.95 nM, the OD450 nm at 0.000853 nM was 0.07 OD450 nm, the OD450 nm at 0.0043 nM was 0.08 OD450 nm and the OD450 nm at 0.02 nM came to 0.09 OD450 nm. In addition, in assay [1], the OD450 nm at 0.11 nM came out at 0.17 OD450 nm, the OD450 nm at 0.53 nM was 0.47 OD450 nm, the OD450 nm at 2.67 nM came out at 0.8 OD450 nm and the OD450 nm at 13.3 nM came to 1.21 OD450 nm. For the same substance, the OD450 nm at 66.7 nM in assay [1] came out at 1.53 OD450 nm. In assay [2], this substance registered an OD450 nm at 0.000853 nM of 0.04 OD450 nm, an OD450 nm at 0.0043 nM of 0.04 OD450 nm, an OD450 nm at 0.02 nM of 0.04 OD450 nm and an OD450 nm at 0.11 nM of 0.04 OD450 nm. In assay [2], this substance gave an OD450 nm at 0.53 nM of 0.04 OD450 nm, an OD450 nm at 2.67 nM of 0.03 OD450 nm, an OD450 nm at 13.3 nM of 0.25 OD450 nm and an OD450 nm at 66.7 nM of 0.26 OD450 nm.
On to SP34 (antibody), for which, in assay [1], the EC50 came to 0.64 nM, the OD450 nm at 0.000853 nM worked out at 0.18 OD450 nm, the OD450 nm at 0.0043 nM amounted to 0.1 OD450 nm and the OD450 nm at 0.02 nM worked out at 0.15 OD450 nm. In assay [1], this substance registered an OD450 nm at 0.11 nM of 0.38 OD450 nm, an OD450 nm at 0.53 nM of 1.45 OD450 nm, an OD450 nm at 2.67 nM of 3.1 OD450 nm and an OD450 nm at 13.3 nM of 3.29 OD450 nm. In assay [1], this substance came in with an OD450 nm at 66.7 nM of 3.23 OD450 nm. Moreover, in assay [3], the EC50 came to 1.51 nM, the Emax (OD) was found to be 2.01 OD, the OD450 nm at 0.00128 nM stood at 0.05 OD450 nm and the OD450 nm at 0.0064 nM was 0.06 OD450 nm. Also, in assay [3], the OD450 nm at 0.032 nM turned out to be 0.09 OD450 nm, the OD450 nm at 0.16 nM came out at 0.23 OD450 nm, the OD450 nm at 0.8 nM is 0.7 OD450 nm and the OD450 nm at 4 nM was found to be 1.49 OD450 nm. In assay [3], this substance had an OD450 nm at 20 nM of 2.01 OD450 nm and an OD450 nm at 100 nM of 1.87 OD450 nm. In assay [2], this substance returned a concentration for a half-maximal effect (EC50) of 0.55 nM, an OD450 nm at 0.000853 nM of 0.12 OD450 nm, an OD450 nm at 0.0043 nM of 0.2 OD450 nm and an OD450 nm at 0.02 nM of 0.19 OD450 nm. Besides, in assay [2], the OD450 nm at 0.11 nM stood at 0.5 OD450 nm, the OD450 nm at 0.53 nM is 1.83 OD450 nm, the OD450 nm at 2.67 nM came out at 3.41 OD450 nm and the OD450 nm at 13.3 nM is 3.57 OD450 nm. This substance also registered an OD450 nm at 66.7 nM in assay [2] of 3.55 OD450 nm.
